# Experimental data reported in patent publication US20250289905A1 (MIRIMGENE, published 2025).
# Substitutions are numbered along the chain they refer to. In names and notes the source's numbering stands.
# T1: mouse-derived WARS1 recombinant protein (mouse, UniProt P32921 1-481, limits assumed)
# T1 construct: Recombinant, His-tagged (detected with anti-His tag antibody); construct not described; In the western blot also secreted WARS1 from J774A.1 supernatant and mouse serum; also called mouse WARS1
# T1 sequence (looked up): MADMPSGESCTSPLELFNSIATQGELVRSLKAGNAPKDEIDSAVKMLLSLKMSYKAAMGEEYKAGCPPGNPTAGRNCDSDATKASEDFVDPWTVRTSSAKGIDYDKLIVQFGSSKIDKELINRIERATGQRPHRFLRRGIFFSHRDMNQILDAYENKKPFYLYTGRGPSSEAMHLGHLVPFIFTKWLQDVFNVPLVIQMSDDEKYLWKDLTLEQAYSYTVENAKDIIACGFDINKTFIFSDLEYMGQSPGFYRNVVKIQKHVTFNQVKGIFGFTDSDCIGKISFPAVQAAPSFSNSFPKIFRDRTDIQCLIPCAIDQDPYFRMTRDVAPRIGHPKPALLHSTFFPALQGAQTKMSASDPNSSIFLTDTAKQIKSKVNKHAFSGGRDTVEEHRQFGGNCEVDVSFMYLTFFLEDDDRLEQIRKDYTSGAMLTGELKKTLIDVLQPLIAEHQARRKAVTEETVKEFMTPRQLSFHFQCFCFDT
# T2: human WARS1 recombinant protein (human, UniProt P23381 2-471, limits assumed)
# T2 construct: Recombinant protein, detected with an anti-His tag antibody; In the western blot also secreted WARS1 from THP-1 supernatant and human serum; also called human-derived WARS1 recombinant protein
# T2 sequence: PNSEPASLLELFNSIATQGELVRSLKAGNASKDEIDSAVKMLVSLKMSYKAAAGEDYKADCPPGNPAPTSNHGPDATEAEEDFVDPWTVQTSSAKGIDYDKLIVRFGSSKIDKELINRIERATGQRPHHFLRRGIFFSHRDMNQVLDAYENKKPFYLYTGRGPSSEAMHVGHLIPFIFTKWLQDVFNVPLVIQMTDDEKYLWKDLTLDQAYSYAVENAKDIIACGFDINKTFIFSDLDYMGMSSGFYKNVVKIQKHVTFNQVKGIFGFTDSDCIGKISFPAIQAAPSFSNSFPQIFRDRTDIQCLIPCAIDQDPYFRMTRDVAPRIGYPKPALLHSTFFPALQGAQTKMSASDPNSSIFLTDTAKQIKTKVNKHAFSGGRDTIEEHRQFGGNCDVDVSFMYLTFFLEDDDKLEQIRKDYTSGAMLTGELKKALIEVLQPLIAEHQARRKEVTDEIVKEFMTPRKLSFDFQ
# T3: pig-derived WARS1 recombinant protein (pig) (UniProt K9IVV5)
# T3 sequence: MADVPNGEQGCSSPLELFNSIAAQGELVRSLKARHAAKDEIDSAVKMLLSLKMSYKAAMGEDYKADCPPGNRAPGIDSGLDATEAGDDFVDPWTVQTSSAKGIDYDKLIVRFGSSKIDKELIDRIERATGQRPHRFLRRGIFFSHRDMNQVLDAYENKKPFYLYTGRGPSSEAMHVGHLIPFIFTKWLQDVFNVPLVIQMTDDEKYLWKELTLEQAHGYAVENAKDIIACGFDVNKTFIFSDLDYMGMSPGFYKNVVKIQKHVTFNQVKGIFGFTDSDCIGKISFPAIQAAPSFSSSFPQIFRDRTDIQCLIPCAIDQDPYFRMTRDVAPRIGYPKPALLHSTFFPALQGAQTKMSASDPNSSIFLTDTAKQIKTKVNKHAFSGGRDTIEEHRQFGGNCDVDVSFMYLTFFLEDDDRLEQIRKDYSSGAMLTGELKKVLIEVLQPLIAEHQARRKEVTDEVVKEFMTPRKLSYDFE
# T4: rat-derived WARS1 recombinant protein (rat, UniProt Q6P7B0 1-481, limits assumed)
# T4 construct: Recombinant, His-tagged (detected with anti-His tag antibody); construct not described; also called rat WARS1
# T4 sequence (looked up): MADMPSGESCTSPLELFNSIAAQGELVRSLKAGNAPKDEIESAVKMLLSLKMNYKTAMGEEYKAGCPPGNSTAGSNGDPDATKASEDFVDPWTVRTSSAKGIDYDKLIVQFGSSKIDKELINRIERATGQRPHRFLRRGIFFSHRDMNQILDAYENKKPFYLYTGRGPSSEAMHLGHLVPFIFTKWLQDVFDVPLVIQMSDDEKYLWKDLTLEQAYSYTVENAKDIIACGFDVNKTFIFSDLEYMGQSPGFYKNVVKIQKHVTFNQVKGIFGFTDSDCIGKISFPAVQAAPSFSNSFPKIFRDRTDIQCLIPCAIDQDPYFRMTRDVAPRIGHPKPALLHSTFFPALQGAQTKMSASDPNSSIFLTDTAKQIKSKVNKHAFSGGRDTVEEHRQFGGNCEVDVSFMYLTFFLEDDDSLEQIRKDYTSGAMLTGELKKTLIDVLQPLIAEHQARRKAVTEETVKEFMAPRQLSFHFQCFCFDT
# B1: GKB101 (antibody, V domains shown)
# VH: EVQLLESGGGLVQPGGSLRLSCAASGFTFSSYDMSWVRQAPGKGLEWVSAISSGGSSIYYADSVKGRFTISRDNSKNTLYLQMNSLRAEDTAVYYCARDVAWDMLGDFDYWGQGTLVTVSS
# VL: QSVLTQPPSASGTPGQRVTISCTGSSSNIGSNYVYWYQQLPGTAPKLLIYANSHRPSGVPDRFSGSKSGTSASLAISGLRSEDEADYYCGAWDDSLSAYVFGGGTKLTVLT
# notes: Parent antibody; expressed in Expi293 cells; also called GKB101 antibody; anti-WARS1 antibody
# B2: H54F (antibody, V domains shown)
# VH: B1 VH
# VL: B1 VL with H54F
# notes: L-CDR2 variant of GKB101; also called H54F antibody
# B3: H54I (antibody, V domains shown)
# VH: B1 VH
# VL: B1 VL with H54I
# notes: L-CDR2 variant of GKB101; also called H54I antibody
# B4: H54L (antibody, V domains shown)
# VH: B1 VH
# VL: B1 VL with H54L
# notes: L-CDR2 variant of GKB101; also called H54L antibody
# B5: S53I (antibody, V domains shown)
# VH: B1 VH
# VL: B1 VL with S53I
# notes: L-CDR2 variant of GKB101; also called S53I antibody
# B6: S53L (antibody, V domains shown)
# VH: B1 VH
# VL: B1 VL with S53L
# notes: L-CDR2 variant of GKB101; also called S53L antibody
# B7: S53T (antibody, V domains shown)
# VH: B1 VH
# VL: B1 VL with S53T
# notes: L-CDR2 variant of GKB101; also called S53T antibody
# B8: SH/IL (antibody, V domains shown)
# VH: B1 VH
# VL: B1 VL with S53I, H54L
# notes: L-CDR2 variant of GKB101; also called SH/IL antibody
# B9: SH/LL (antibody, V domains shown)
# VH: B1 VH
# VL: B1 VL with S53L, H54L
# notes: L-CDR2 variant of GKB101; also called SH/LL antibody
# B10: H54Q (antibody, V domains shown)
# VH: B1 VH
# VL: B1 VL with H54Q
# notes: L-CDR2 variant of GKB101; also called H54Q antibody
# B11: S53V (antibody, V domains shown)
# VH: B1 VH
# VL: B1 VL with S53V
# notes: L-CDR2 variant of GKB101; also called S53V antibody
# B12: H54K (antibody, V domains shown)
# VH: B1 VH
# VL: B1 VL with H54K
# notes: L-CDR2 variant of GKB101; also called H54K antibody; M105A
# B13: S53Q (antibody, V domains shown)
# VH: B1 VH
# VL: B1 VL with S53Q
# notes: L-CDR2 variant of GKB101; also called S53Q antibody
# B14: SHL/LLN (antibody, V domains shown)
# VH: B1 VH
# VL: B1 VL with S53L, H54L, L96N
# notes: L-CDR2 and L-CDR3 variant of GKB101; also called SHL/LLN antibody
# B15: SHL/ILN (antibody, V domains shown)
# VH: B1 VH
# VL: B1 VL with S53I, H54L, L96N
# notes: L-CDR2 and L-CDR3 variant of GKB101; also called SHL/ILN antibody
# B16: SH/QL (antibody, V domains shown)
# VH: B1 VH
# VL: B1 VL with S53Q, H54L
# notes: L-CDR2 variant of GKB101; also called SH/QL antibody
# Target: T1, mouse-derived WARS1 recombinant protein
# Assay: western blot; recombinant protein, J774A.1 culture supernatant, mouse serum
# Method: (§1) At this time, a WARS1 recombinant protein (human, mouse, pig, marmoset (NHP), or rat-derived), cell culture medium, and human or mouse serum were used as WARS1 protein samples. In particular, the cell culture medium was used by treating the human monocyte cell line, THP-1, or the mouse macrophage cell line, J774.1A, with LPS (lipopolysaccharide, 100 ng/ml) for 24 hours to induce an inflammatory response, and then the cell culture supernatant was obtained for use.
# (§2) 30 μg of each of the WARS1 recombinant protein (human, mouse, pig, marmoset (NHP), or rat-derived), the cell supernatant obtained using the method above, and mouse or human serum was loaded onto 8% SDS-PAGE, then transferred to a PVDF membrane (Millipore). Afterwards, the membrane was reacted with 1 μg/ml of GKB101 or a variant antibody thereof for 1 hour each, then washed with TBST (TBS+Tween20) three times. Afterwards, it was reacted with a secondary antibody (anti-human IgG HRP, Millipore) for 1 hour, then washed with TBST three times to be treated with ECL (West® bright ECL, Advanta) to identify its protein expression (LAS-4000, Fujifilm).
row,Binder,binding result
1,B1,binds
2,B2,binds
3,B3,binds
4,B4,binds
5,B5,binds
6,B6,binds
7,B7,binds
8,B8,binds
9,B9,binds

# Target: T2, human WARS1 recombinant protein
# Assay: western blot; recombinant protein, THP-1 culture supernatant, human serum
# Method: as §1, §2
row,Binder,binding result
1,B2,binds
2,B3,binds
3,B4,binds
4,B10,binds
5,B7,binds
6,B11,binds
7,B8,binds
8,B9,binds

# Target: T2, human WARS1 recombinant protein
# Assay: cell-based or functional assay
row,Binder,secretion of TNF-α in mouse macrophage J774A.1 cells
1,B1,≥ 40%
2,B12,≥ 40%
3,B5,≥ 40%
4,B6,≥ 40%
5,B13,≥ 40%
6,B14,≥ 40%

# Target: marmoset (NHP)-derived WARS1 recombinant protein (marmoset (NHP)) (UniProt U3CR73)
# Assay: direct ELISA
row,Binder,Kd
1,B15,1 pM
2,B14,1 pM

# Target: T3, pig-derived WARS1 recombinant protein (pig)
# Assay: direct ELISA
row,Binder,Kd
1,B12,1000 pM
2,B10,1000 pM
3,B6,1000 pM
4,B13,1000 pM
5,B11,1000 pM

# Target: T4, rat-derived WARS1 recombinant protein
# Assay: western blot; recombinant protein
# Method: as §1, §2
row,Binder,binding result
1,B1,binds
2,B2,binds
3,B3,binds
4,B5,binds
5,B6,binds
6,B7,binds
7,B8,binds
8,B9,binds

# Target: T2, human WARS1 recombinant protein
# Assay: direct ELISA
# Method: (§3) Specifically, for direct ELISA, a 96-well plate (Maxisorp, Thermo Fisher) was coated with WARS1 having a 1 μg/ml concentration of a recombinant protein derived from human, marmoset (NHP), mouse, rat, and pig, and then blocked with PBS containing 1% BSA at room temperature for 1 hour. The GKB101 antibody or a variant antibody thereof was diluted in a concentration-dependent manner, added to each coated well, reacted at room temperature for 1 hour, and then washed four times with PBST (PBS+Tween20). Each well was treated and reacted for 1 hour with an antibody (anti-Human IgG, cell signaling) to which HRP is attached, and then washed with PBST. Lastly, after developing with a TMB substrate (BD), its absorbance was measured at 490 nm (NIVO) (FIGS. 4a to 5).
row,Binder,Kd
1,B12,~1 pM
2,B13,~1 pM
3,B16,~1 pM
4,B15,~1 pM
5,B14,~1 pM

# Target: T4, rat-derived WARS1 recombinant protein
# Assay: direct ELISA
# Method: as §3
row,Binder,Kd
1,B12,~1 pM
2,B4,~1 pM
3,B10,~1 pM
4,B13,~1 pM
5,B11,~1 pM
6,B16,~1 pM
7,B15,~1 pM
8,B14,~1 pM

# Target: T1, mouse-derived WARS1 recombinant protein
# Assay: direct ELISA
# Method: as §3
row,Binder,Kd
1,B12,~1 pM
2,B10,~1 pM
3,B13,~1 pM
4,B11,~1 pM
5,B16,~1 pM
6,B15,~1 pM
7,B14,~1 pM
